The DeepSol protein solubility set

Experiment: soluble on expression in E. coli; label from the status in PepcDB or PDB records

Sequence | soluble on expression in E. coli
SNAERRLCAILAADMAGYSRLMERNETDVLNRQKLYRRELIDPAIAQAGGQIVKTTGDGMLARFDTAQAALRCALEIQQAMQQREEDTPRKERIQYRIGINIGDIVLEDGDIFGDAVNVAARLEAISEPGAICVSDIVHQITQDRVSEPFTDLGLQKVKNITRPIRVWQWVPDADRDQSHDPQPSHVQH | soluble
SNAIAVGSERSADGKGMLLANPHFPWNGAMRFYQMHLTIPGRLDVMGASLPGLPVVNIGFSRHLAWTHTVDTSSHFTLYRLALDPKDPRRYLVDGRSLPLEEKSVAIEVRGADGKLSRVEHKVYQSIYGPLVVWPGKLDWNRSEAYALRDANLENTRVLQQWYSINQASDVADLRRRVEALQGIPWVNTLAADEQGNALYMNQSVVPYLKPELIPACAIPQLVAEGLPALQGQDSRCAWSRDPAAAQAGITPAAQLPVLLRRDFVQNSNDSAWLTNPASPLQGFSPLVSQEKPIGPRARYALSRLQGKQPLEAKTLEEMVTANHVFSADQVLPDLLRLCRDNQGEKSLARACAALAQWDRGANLDSGSGFVYFQRFMQRFAELDGAWKEPFDAQRPLDTPQGIALDRPQVATQVRQALADAAAEVEKSGIPDGARWGDLQVSTRGQERIAIPGGDGHFGVYNAIQSVRKGDHLEVVGGTSYIQLVTFPEEGPKARGLLAFSQSSDPRSPHYRDQTELFSRQQWQTLPFSDRQIDADPQLQRLSIRE | soluble
SNAKELIQNIIEESYTDSQFTLSVLSEKLDLSSGYLSIMFKKNFGIPFQDYLLQKRMEKAKLLLLTTELKNYEIAEQVGFEDVNYFITKFKKYYQITPKQYRE | soluble
SNAMDLQLSKRLQKVANYVPKGARLLDVGSDHAYLPIFLLQMGYCDFAIAGEVVNGPYQSALKNVSEHGLTSKIDVRLANGLSAFEEADNIDTITICGMGGRLIADILNNDIDKLQHVKTLVLQPNNREDDLRKWLAANDFEIVAEDILTENDKRYEILVVKHGHMNLTAKELRFGPFLLSNNTTVFKEKWQNELNKLTFALNSIPNSKMEERAILEDKIQDIKEVLDES | soluble
SNAMDMVTVTAKTVEEAVTKALIELQTTSDKLTYEIVEKGSAGFLGIGSKPAIIRAKRKETLQDKAIEFLEQVFDAMNMAVDISVEYNETEKEMNVNLKGDDMGILIGKRGQTLDSLQYLVSLVVNKSSSDYIRVKLDTENYRERRKETLETLAKNIAYKVKRTKRSVSLEPMNPYERRIIHAALQNDKYVVTRSDGEEPFRHVIISLKRENRRDRNDRSDRNEK | soluble
SNAMGKKIRTEEVDHLFEAILCLKNKEECYTFFEDVCTINELLSLSQRFEVAKMLTDKRTYLDISEKTGASTATISRVNRSLNYGNDGYEMVFSRMKEKETAGKTEE | soluble
SNAMIRNIVFDLGGVLIHLNREESIRRFKAIGVADIEEMLDPYLQKGLFLDLESGRKSEEEFRTELSRYIGKELTYQQVYDALLGFLEEISAEKFDYIDSLRPDYRLFLLSNTNPYVLDLAMSPRFLPSGRTLDSFFDKVYASCQMGKYKPNEDIFLEMIADSGMKPEETLFIDDGPANVATAERLGFHTYCPDNGENWIPAITRLLREQK | soluble
SNAMKIAVINGGTRSGGNTDVLAEKAVQGFDAEHIYLQKYPIQPIEDLRHAQGGFRPVQDDYDSIIERILQCHILIFATPIYWFGMSGTLKLFIDRWSQTLRDPRFPDFKQQMSVKQAYVIAVGGDNPKIKGLPLIQQFEHIFHFMGMSFKGYVLGEGNRPGDILRDHQALSAASRLLKRSDAI | soluble
SNAMKKKDMNKQVKIQDAVAAIILAEGPAGVSTTKVAKRVGIAQSNVYLYFKNKQALIDSVYARETNRILSTTDLDRLSDSTIDVTTRIRLYVQQVYDYSLANPDSLTIIQQIKALNGQGMTISAADADPNNIVANLLTAAIDAKVIKQLPVSLHMGVVFSTIHTHTTNISKGRYAQDQYTFGDIFQMIWDAMKQD | soluble
SNAMKLMDVHVLFSGGKDSSLSAVILKKLGYNPHLITINFGVIPSYKLAEETAKILGFKHKVITLDRKIVEKAADMIIEHKYPGPAIQYVHKTVLEILADEYSILADGTRRDDRVPKLSYSEIQSLEMRKNIQYITPLMGFGYKTLRHLASEFFILEEIKSGTKLSSDYEAEIRHILKERGESPEKYFPEHKQTRVVGLKKEI | soluble
SNAMKQAIGFIDSGVGGLTVVREVLKQLPHEQVYYLGDTARCPYGPRDKEEVAKFTWEMTNFLVDRGIKMLVIACNTATAAALYDIREKLDIPVIGVIQPGSRAALKATRNNKIGVLGTLGTVESMAYPTALKGLNRRVEVDSLACPKFVSVVESGEYKSAIAKKVVAESLLPLKSTKIDTVILGCTHYPLLKPIIENFMGDGVAVINSGEETASEVSALLDYHNLLDATDEEIEHRFFTTGSTQIFKDIAKDWLNMPDMTVEHIKLGK | soluble
SNAMNPIEFWFDFSSGYAFFAAQRIEALAAELGRTVLWRPYMLGAAFSVTGARGLSSTPLKRDYAQRDWARIARQRGLTFRPPADHPHVALAATRAFYWIEAQSPDAATAFAQRVFDLYFSDRLDTASPEAVSRLGPEVGLEPEALLAGIADPALKETVRKIGEDAVARGIFGSPFFLVDDEPFWGWDRMEMMAEWIRTGGW | soluble
SNAMPVRVIVDSSACLPTHVAEDLDITVINLHVMNNGEERSTSGLSSLELAASYARQLERGGDDGVLALHISKELSSTWSAAVTAAAVFDDDSVRVVDTSSLGMAVGAAAMAAARMAKDGASLQECYDIAVDTLKRSETWIYLHRIDEIWKSGRISTATAMVSTALATRPIMRFNGGRMEIAAKTRTQSKAFAKLVELAQIRADGEPVFIAIGQNEAREAAKQLEELLRNALPEGSSFMSVDIDPTLAVHSGPGAVSVSAVFANQAPELSTGKAGAK | soluble
SNAMQRANREHLEIISLEEISMLVSSDFDLPEVLQHVTAKVATQLKVSVCNIYLREGDEVVLAATHGFDPAFIGKIRIKIGDGITGSVARDGQYISLSRASQDPRYRYFPELQEEKYNSMLSFPIGDKKEVYGVINLNTTSIRSFHEDEIYFVSIIANLILTAIKLRQQVASSRKAAEASA | soluble
SNAMSKQLLALNIDGALLRSNGKIHQATKDAIEYVKKKGIYVTLVTNRHFRSAQKIAKSLKLDAKLITHSGAYIAEKIDAPFFEKRISDDHTFNIVQVLESYQCNIRLLHEKYSIGNKKKVNSNLLGKALIHPSDPIFYPVQFVESLSDLLMDEPVSAPVIEVYTEHDIQHDITETITKAFPAVDVIRVNDEKLNIVPKGVSKEAGLALVASELGLSMDDVVAIGHQYDDLPMIELAGLGVAMGNAVPEIKRKADWVTRSNDEQGVAYMMKEYFRMQQRKGFLDKFHMKR | soluble
SNAMSQEAFENKLYANLEAVIDPELGVDIVNLGLVYDVTADENNNAVITMTMTSIGCPMAGQIVSDVKKVLSTNVPEVNEIEVNVVWNPPWSKERMSRMAKIALGIRD | soluble
SNAMYKEGACLYRNPLRSKSDVKDWRMEGGGQISFDDHSLHLSHVQDEAHFVFWCPETFPDGIIVTWDFSPIEQPGLCMLFFAAAGIRGEDLFDPSLRKRTGTYPEYHSGDINALHLSYFRRKYAEERAFRTCNLRKSRGFHLAAMGADPLPSPDDADSPYRMKLIKDKGYVHFSINGLPILEWMDDGSTYGPVLTKGKIGFRQMAPMKAVYRDFAVHQAVRR | soluble
SNANEAQQYYLDADEAEAWIGEQELYVISDEIPKDEEGAIVMLKRHLRQQRAVEDYGRNIKQLASRAQGLLSAGHPEGEQIIRLQGQVDKHYAGLKDVACERKRKLENMYHLFQLKRETDDLEQWISEKELVASSPEMGQDFDHVTLLRDKFRDFARETGAIGQERVDNVNAFIERLIDAGHSEAATIAEWKDGLNEMWADLLELIDTRMQLLAASYDLHRYFYTGAEILGLIDEKHRELPEDVGLDASTAESFHRVHTAFERDVHLLGVQVQQFQDVATRLQTAYAGEKAEAIQNKEQEVSAAWQALLDACAGRRTQLVDTADKF | soluble
SNATKTIHNARYQALLDLLLEARSAAGITQKELAARLGRPQSFVSKTENAERRLDVIEFMDFCRGIGTDPYALLSKLEAMTPS | soluble
SNQKIASIEQLSNNEGIISALAFDQRGALKRMMAKHQTEEPTVAQIEQLKVLVAEELTQYASSILLDPEYGLPASDARNKDCGLLLAYEKTGYDVNAKGRLPDCLVEWSAKRLKEQGANAVKFLLYYDVDDAEEINIQKKAYIERIGSECVAEDIPFFLEVLTYDDNIPDNGSVEFAKVKPRKVNEAMKLFSEPRFNVDVLKVEVPVNMKYVEGFAEGEVVYTKEEAAQHFKDQDAATHLPYIYLSAGVSAELFQETLKFAHEAGAKFNGVLCGRATWSGAVQVYIEQGEDAAREWLRTTGFKNIDDLNKVLKDTATSWKQ | not soluble
SNRTSAKSNLMLILLGLQMKEISNSDLYKLKEVRSVVTSLASFLFQQQNVGVMKSFDSLEKEAFRDLVNRLVSQGLIGLKDKTSETFDLLPLKNLFEYAEKRISVLMKLQCYTGTVQLSHVQEKLHLPYITTNGIVDVFKECLKRTKKQYPEVLKNWWIDLDPKNGMEDQNSGILLHLEYAAAYS | soluble
SNYLDQMEEYDKVEEISRKHKHNCFCIQEVVSGLRQPVGALHSGDGSQRLFILEKEGYVKILTPEGEIFKEPYLDIHKLVQSGIKGGDERGLLSLAFHPNYKKNGKLYVSYTTNQERWAIGPHDHILRVVEYTVSRKNPHQVDLRTARVFLEVAELHRKHLGGQLLFGPDGFLYIILGDGMITLDDMEEMDGLSDFTGSVLRLDVDTDMCNVPYSIPRSNPHFNSTNQPPEVFAHGLHDPGRCAVDRHPTDININLTILCSDSNGKNRSSARILQIIKGKDYESEPSLLEFKPFSNGPLVGGFVYRGCQSERLYGSYVFGDRNGNFLTLQQSPVTKQWQEKPLCLGTSGSCRGYFSGHILGFGEDELGEVYILSSSKSMTQTHNGKLYKIVDPKRPLMPEECRATVQPAQTLTSECSRLCRNGYCTPTGKCCCSPGWEGDFCRTAKCEPACRHGGVCVRPNKCLCKKGYLGPQCEHHHHHH | soluble
SPAPNQPAAKKTLDSTPAQDKPPQPNSQGKKLASVALLLVLALGAGFAYVHQQQKSEFNNQLQAVRAELKQTRDALNAQLEQTVSKATSQATEITHRAETVLEQQQKSIESLQLAVADIKGRRPNDWLLAEADYLVKLAGRKLFLEHDVETATQLMESADQRIAALNDPSLTALRKAMANDITTLKNIPLIDRDGLVLRLISLQQQIDSLPLANAILPADQPQTSQAVSENIDDWQTNLKNSLKAFADNFITFRSRDGNVIPLLSPTQHFYLRENLQAKLETAIKGVYTEQQTLYRIALDTAAQWSTSFFNPDDKAVQSFNAALAQLAEQQVQVEYPVKLQAQQQLADVINERLRRSVSPLTTGA | not soluble
SPNNSKHKKKQQRRQQEAQKKSRAKQIETDKKNDEFLDTELDEVSPLVIDDDMTEFKNMPKVELHAHLSGSLSPETIKLIMESDETRAEEIMKKYKLEKPENMTGVFDCFPVIHAILRKPEAIRIAIRQTIKEFEEDNCVYLELRTSPKETDFMTYEDYLQVCIESFEAAKHEFPRIKTFLIVSLDRRMPFETAAHILGLIGEAQQRTNVIVGVELSGDPHLDGRRLLKLFVAARRFHGLGITIHLAEVLQNMADVEDYLNLRPDRIGHGTFLHTDPYTEYLTNKYKIPLGENLIQLHLIFLFFLEICLSSNVYSKTTTNYRNSHFNYWRKRGVPVFICTDDKGVIPGATLTEEYYKAAITFDLSTEELIGINQDALLNSFAYKYNVTDLTETFRKINNNVLD | not soluble
